B1: recombinant His-tagged TRIM25ΔRBD (lacking residues 470–508) (natural protein, human, UniProt Q14258 1-630, looked up)
chain: MAELCPLAEELSCSICLEPFKEPVTTPCGHNFCGSCLNETWAVQGSPYLCPQCRAVYQARPQLHKNTVLCNVVEQFLQADLAREPPADVWTPPARASAPSPNAQVACDHCLKEAAVKTCLVCMASFCQEHLQPHFDSPAFQDHPLQPPVRDLLRRKCSQHNRLREFFCPEHSECICHICLVEHKTCSPASLSQASADLEATLRHKLTVMYSQINGASRALDDVRNRQQDVRMTANRKVEQLQQEYTEMKALLDASETTSTRKIKEEEKRVNSKFDTIYQILLKKKSEIQTLKEEIEQSLTKRDEFEFLEKASKLRGISTKPVYIPEVELNHKLIKGIHQSTIDLKNELKQCIGRLQEPTPSSGDPGEHDPASTHKSTRPVKKVSKEEKKSKKPPPVPALPSKLPTFGAPEQLVDLKQAGLEAAAKATSSHPNSTSLKAKVLETFLAKSRPELLEYYIKVILDYNTAHNKKGIHYWEVELQKNNFCGVGICYGSMNRQGPESRLGRNSASWCVEWFNTKISAWHNNVEKTLPSTKATRVGVLLNCDHGFVIFFAVADKVHLMYKFRVDFTEALYPAFWVFSAGATLSICSPK

Columns and labels:
[1] = test system: His-TRIM25 (Homo sapiens); assay: EMSA; conditions: 3 mM Mg2+, 0.5 mM ATP; EMSA: 4.8 mM Tris pH 8, 144 mM NaCl, 0.96 mM DTT, 3 mM MgCl2, 0.5 mM ATP, 37.5 mM creatine phosphate, 16 uL, ~0.1 pmol RNA, 4 C 1 h; pull-down conditions not …
[2] = target: the molecule itself; assay: SEC-MALS; approximately 0.75 mg/mL on Superdex200 Increase 10/300 GL, 1.0 mL/min, 10 mM Tris (pH 8.0), 300 mM NaCl, 0.5 mM TCEP; self-association (tetramer)

| Molecule | Kd [1] [nM] | stoichiometry N [2] |
| --- | --- | --- |
| pre-let-7a-1 | 800 | – |
| B1 | – | 4 |

Source: paper PMC5678581 (BMC Biology, 2017)
